The target of this assay is T1, Soli E2 (Solenopsis invicta).
T1 sequence: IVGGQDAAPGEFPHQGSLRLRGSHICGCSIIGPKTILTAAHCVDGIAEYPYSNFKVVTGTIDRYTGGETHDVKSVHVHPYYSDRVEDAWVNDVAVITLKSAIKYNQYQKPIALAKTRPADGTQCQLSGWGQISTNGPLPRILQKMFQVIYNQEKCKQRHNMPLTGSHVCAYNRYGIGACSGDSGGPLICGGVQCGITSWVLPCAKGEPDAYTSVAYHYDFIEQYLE
Description: cell-based or functional assay.

Sequence of α-1-Proteinase Inhibitor (P01009 25-418 limits assumed): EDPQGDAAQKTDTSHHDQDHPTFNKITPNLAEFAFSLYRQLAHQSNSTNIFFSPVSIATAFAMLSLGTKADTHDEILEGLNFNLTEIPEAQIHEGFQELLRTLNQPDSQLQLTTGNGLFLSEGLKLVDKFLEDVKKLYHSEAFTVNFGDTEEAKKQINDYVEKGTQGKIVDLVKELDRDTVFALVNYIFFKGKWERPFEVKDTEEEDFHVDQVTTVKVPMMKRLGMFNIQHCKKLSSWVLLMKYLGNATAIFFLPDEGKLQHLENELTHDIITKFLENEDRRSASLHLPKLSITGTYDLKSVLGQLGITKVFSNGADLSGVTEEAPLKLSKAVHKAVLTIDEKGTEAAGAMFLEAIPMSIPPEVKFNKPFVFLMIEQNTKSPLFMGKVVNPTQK

Z-Pro-Val-^p(OPh)2 (peptide) returned a Max Inhibition Rate/IC50 of 36.6.
Consider Z-Leu-Phe-^p(OPh)2 (peptide), for which the Max Inhibition Rate/IC50 is under 0.1.
As a reminder, the IC50 is the concentration needed to halve the response being measured. A lower IC50 goes with inhibition by little substance. The substance Canadian Goose OM yielded an IC50 of 7.68 nM.
The substance Domestic Goose OM yielded an IC50 of 6.03 nM.
With Eglin C (from UniProt P01051 1-70), the 50% inhibitory concentration (IC50) is 1.89 nM.
Boc-Val-Pro Val-^p(OPh)2 (peptide): the Max Inhibition Rate/IC50 turned out to be 735.
Take “Domestic Goose OM Domain III (from UniProt P68389 1-54)”: the half-maximal inhibitory concentration (IC50) was determined as 5.58 nM.
Potato Inhibitor II registered a concentration for half-maximal inhibition (IC50) of 10.1 nM.
Z-Val-Val-^p(OPh)2 (peptide) came in with a Max Inhibition Rate/IC50 of 76.8.
In turn, “α-1-Proteinase Inhibitor (from UniProt P01009 25-418)” registered a half-maximal inhibitory concentration (IC50) of 0.604 nM.
The same measure, in the same setting: the value for “Canadian Goose OM Domain III (from UniProt P68393 1-54)” was 27.3 nM.
Substance Z-Phe-Phe-^p(OPh)2 (peptide) came in with a Max Inhibition Rate/IC50 of under 0.1.
In the case of Z-Ala-Val-^p(OPh)2 (peptide), the Max Inhibition Rate/IC50 stood at 27.2.
Substance Boc-Ala-Pro-Val-^p(OPh)2 (peptide) had a Max Inhibition Rate/IC50 of 666.
Potato Inhibitor I gave an IC50 of 9.13 nM.
Z-Phe-Leu-Phe-^p(OPh)2 (peptide) showed a Max Inhibition Rate/IC50 of under 0.1.
As for Z-Gly-Leu-Phe-CK (peptide), the Max Inhibition Rate/IC50 is under 0.1.

Values taken from US6399759.
